A short description of this data set: yeast display, Sf9 membrane polyspecificity reagent, FACS + sequencing; frameworks hold sequencing errors. An outline of the steps: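 A synthetic nanobody library was expressed on Saccharomyces cerevisiae BJ5465 by galactose induction for 36–48 hours. The library was stained for 1 hour at 4 °C with 10% biotinylated, detergent-solubilized Sf9 membrane reagent and enriched with streptavidin microbeads before FACS. Low and high (top ~1%) gates were set on anti-HA fluorescence for expression and streptavidin fluorescence for reagent binding, and each polyreactivity label reflects the gate of origin.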
As to “QVQLVESGGGLVQAGGSLRLSCAASGSTIVRYVMGWYRQAPGKERELVAAISRRGGSTYYADSVKGRFTISRDNAKNTVYLQMNSLKPEDTAVYYCARTVGYRTLLESDSWGQGTQVTVSS”, the “polyreactivity (PSR sort gate)” value is “high polyreactivity”. For “QVQLVESGGGLVQAGGSLRLSCAASGSTIVTKAMGWYRQAPGKERELVAAISFSVGRTYYADSVKGRFTISRDNAKNTVYLQMNSLKPEDTAVYYCAAGLRVTPALHSYGYWGQGTQVTVSS”, the “polyreactivity (PSR sort gate)” value is recorded as “high polyreactivity”.

As for “QVQLVESGGGLVQAGGSLRLSCAASGSTIWSYAMGWYRQAPGKERELVASITWSGGSTYADSVKGRFTISRDNAKNTVYLQMNSLKPEDTAVYYCARESTLTYYSDDFDYWGQGTQVTVSS”, the “polyreactivity (PSR sort gate)” value is “low polyreactivity”. In the case of “QVQLVESGGGLVQAGGSLRLSCAASGSTIYGYTMGWYRQAPGKEREMVAVITSGGSTYFADSVKGRFTISRDNAKNTVYLQMNSLKPEVTAVYYCAKRYGYTAYGRPWRIGRTYDYWGQGTQVTVSS” it was “low polyreactivity”; in that of “QVQLVESGGGLVQAGGSLRLSCAASGSTIYLNAMGWYRQAPGKERELVAAIDYRGGSTYYADSVKGRFTISRDNAKNTVYLQMNSLKPEDTAVYYCNADYVYVHYQPGYYWGQGTQVTVSS”, “low polyreactivity”. The value for “QVQLVESGGGLVQAGGSLRLSCAASGSTIYNYAMGWYRQATGKERELVAVISRSGGRTYYADSVKGRFTISRDNAKNTVYLQMNSLKPEDTAVYYCAADTYRGYDFDYWGQGTQVTVSS” was “high polyreactivity”; that for “QVQLVESGGGLVQAGGSLRLSCAASGSTIYPYAMGWYRQAPGKERELVAAISSGGRTYYADSVKGRFTISRDNAKNTVYLQMNSLKPEDTAVYYCAARVTKKYRRTYDYWGQGTQVTVSS” was “high polyreactivity”; that for “QVQLVESGGGLVQAGGSLRLSCAASGSTIYTYVMGWYRQAPGKERELVAAISWSGSSTYYADSVKGRFTISRDNAKNTVYLQMNSLKPEDTAVYYCNAQYRRGWWGVEYGYWGQGTQVTVSS” was “low polyreactivity”. In the case of “QVQLVESGGGLVQAGGSLRLSCAASGSTIYYNAMGWYRQAPGKERELVAAISKSSSRTYYADSVKGRFTISRDNAKYSVYLQMNSLKPEDTAVYYCAADAVYYHFDYWGQGTQVTVSS” it was “high polyreactivity”. Turning to “QVQLVESGGGLVQAGGSLRLSCAASGSTIYYYALGWYRQAPGKERELVAAISWSGASTFYADSVKGRFTISRDNAKNTVDLKMNSLKPVDTAVYYCAAVIKGWGQGTQVTVSS”, the “polyreactivity (PSR sort gate)” value was “high polyreactivity”.

Turning to “QVQLVESGGGLVQAGGSLRLSCAASGSTLAGYAMGWYRQAPGKERELVAAIDWTGGSTTYADSVKGRFTISRDNAKNTVYLQMNSLKPEDTAVYYCNVDLGVNGDYWGQGTQVTVSS”, the “polyreactivity (PSR sort gate)” value is “low polyreactivity”. In the case of “QVQLVESGGGLVQAGGSLRLSCAASGSTLAGYAMGWYRQAPGKERELVAAITRRGGRTYYADSVKGRFTISRDNAKNTVYLQMNSLKPEDTAVYYCAAQRSVKVDYWGQGTQVTVSS” it was “high polyreactivity”; in that of “QVQLVESGGGLVQAGGSLRLSCAASGSTLAGYAMGWYRQAPGQERELVAAIDWTGGSTTYADSVKGRFTISRDNAKNTVYLQMNSLKPEDTAVYYCNVDLGVNCEYWGQGTQVTVSW”, “low polyreactivity”. In the case of “QVQLVESGGGLVQAGGSLRLSCAASGSTLAKYTMGWYRQAPGKERELVATISRRGGSTYYADSVKGRFTISRDNAKNTVYLQMNSLKPEDTAVYYCNAVGHTSIRRALDILDYWGQGTQVTVSS” it was “high polyreactivity”; in that of “QVQLVESGGGLVQAGGSLRLSCAASGSTLAPYVMGWYSQAPGKERELVAVISTRTGRTYYADSVKGRFTISRDNAKNTVSLQMNSLKPEDTAVYYCNAYPHAYTGSTREGDYWGQGTQVTVSS”, “high polyreactivity”. In the case of “QVQLVESGGGLVQAGGSLRLSCAASGSTLASYAMGWYSQAPGKERELVAVIDSGGSTYYADSVKGRFTISRDNAKNSVYVQMNSLKPEDTAVYDCAAGWEFSGVLTLFGYWGQGTQVTVSS” it was “low polyreactivity”; in that of “QVQLVESGGGLVQAGGSLRLSCAASGSTLATYTMGWYRLAPGTVRELVGAISFGGSTYYADSVKGRFTISRDNAKNTVYLQMNSLKPVDTAVYYCAVDGDSYWGAYYYSDGYWGQGTQVTVSS”, “low polyreactivity”; in that of “QVQLVESGGGLVQAGGSLRLSCAASGSTLDSNAMGWYRQAPGKERELVAGIDWSGGSTYADSVKGRFTISRDNAKNTVYLQMNSLKPEDTAVYYCNRKLTRFTSFPLDYWGQGTQVTVSS”, “low polyreactivity”. As to “QVQLVESGGGLVQAGGSLRLSCAASGSTLEFNARGWSRQAPGKERELVAVINRSDGSTYYADSVKGRFTISRDNAKNTVYLQMNSLKPEDTAVYYCAADRHQVSVISTEDYWGQGTQVTVSS”, the “polyreactivity (PSR sort gate)” value was “low polyreactivity”. Consider “QVQLVESGGGLVQAGGSLRLSCAASGSTLFINAMGWYRQAPGKERELVAAITSGTSTNYADSVKGRFTISRDNAKNTVYLQMNSLKPEDTAVYYCAVDYWYVPYYWGQGTQVTVSS”, for which the “polyreactivity (PSR sort gate)” value is listed as “low polyreactivity”.

Turning to “QVQLVESGGGLVQAGGSLRLSCAASGSTLFYYAMGCYRQAPGKERELVAAITQNGGGTYYADSVKGRFTISRDNAKNTVYLQMNSLKPEDTAVYYCAVTQEYIADHWYGYWGQGTQVTVSS”, the “polyreactivity (PSR sort gate)” value is given as “low polyreactivity”. The value for “QVQLVESGGGLVQAGGSLRLSCAASGSTLGGYAMGWYRQAPGKERELVAAIRWGGNTYYADSVKGRFTISRDNAKNTVYLQMNSLKPEDTAVYYCAADRWYYFLMYYWGQGTQVTVSS” was “low polyreactivity”; that for “QVQLVESGGGLVQAGGSLRLSCAASGSTLGHNAMGWYRQAPGKERELVAGISWRGGSTYYADSVKGRFTISRDNAKNTVYLQMNSLKPEDTAVYYCAAVSYPAVYGFDYWGPGTQVTVSS” was “high polyreactivity”; that for “QVQLVESGGGLVQAGGSLRLSCAASGSTLGRNAMGWYRQAPGKERELVAGIDGSAGSTYYADSVKGRFTISRDNAKNTVYLQMNSLKPEDTAVYYCNADVIDLDYDYWGQGTQVTVSS” was “low polyreactivity”.

In the case of “QVQLVESGGGLVQAGGSLRLSCAASGSTLGRYAMGWYRQAPGKERELVAAISSSGTTYYADSVKGRFTISRDNAKNTVYFQMNSLKPEDTAVYYCNARGFRVARHAAWYQYYYWGQGTQVTVSS”, the “polyreactivity (PSR sort gate)” value is given as “high polyreactivity”. The value for “QVQLVESGGGLVQAGGSLRLSCAASGSTLGRYAMGWYRQAPGKERELVASITWSDDSTYYADSVKGRFTISRDNAKNTVSLQMNSLKPEDTAVYYCAAAANLYTYRFYYWGQGTQVTVSS” was “low polyreactivity”. As for “QVQLVESGGGLVQAGGSLRLSCAASGSTLGVNAMGWYRQAPGKEREFVAAITGRGGNTYYADSVKGRFTISRDNAKNTVYLQMNSLKPEDTAVYYCAARVKYTRYQSILDYYYWGQGTQVTVSS”, the “polyreactivity (PSR sort gate)” value is “high polyreactivity”. Consider “QVQLVESGGGLVQAGGSLRLSCAASGSTLGVYVMGWYRQAPGKERELVAAISRNGGSTYYADSVKARFTISRDNAKNTVYLQMNSLKPEDTAVYYCAARTVGRKACFDYWGQGTQVTVSS”, for which the “polyreactivity (PSR sort gate)” value is on record as “high polyreactivity”. In the case of “QVQLVESGGGLVQAGGSLRLSCAASGSTLGYYAMGWYRQAPGKERELVAAISGRGTSTYYADSVKGRFTISRDNAKTTVYLQMNSLKPEDSAVFYCAAQLFRELYWGQGTQVNVSS” it was “high polyreactivity”. On to “QVQLVESGGGLVQAGGSLRLSCAASGSTLGYYAMGWYRQAPGKERELVAAISWRTDSTYYADSVKGRFTISRDNAKNTVYLQMNSLKPEDTAVYYCAAQGAYDTYYAQTYGYWGQGTQVTVSS”, for which the “polyreactivity (PSR sort gate)” value is listed as “low polyreactivity”. The value for “QVQLVESGGGLVQAGGSLRLSCAASGSTLGYYGMGWYRQAPGKERELVAAISGRGTSTYYADSVKGRCTISRDNAKNTVYLQMNSLKPEDTAVYYCAAQLFRELYWGQGTQVTVSS” was “high polyreactivity”; that for “QVQLVESGGGLVQAGGSLRLSCAASGSTLGYYTMGWYIQAPGKERELVAAITRSGGSTYYADSVKGRFTISRDNAKNTVYLQMNSLKPEDTAVYYCAARSYQGTSSGRVTRRYDYWGQGTQVTVSS” was “high polyreactivity”. In the case of “QVQLVESGGGLVQAGGSLRLSCAASGSTLGYYTMGWYRQAPGKERELVAAISYGGGSTYYADSVKGRFTISRDNAKNTVYLQMNSLKPEDTAVYYCAARWGKSWRGYGYWGQGTQVTVSS” it was “high polyreactivity”. In the case of “QVQLVESGGGLVQAGGSLRLSCAASGSTLLGNTMGWYRQAPGKERELVAAISWSGGSTYYADSVKGRFTISRDNAKNTVYLQMNSLKPEDTAVYYCNALGRENKGSYGYDYWGQGTQVTVSS” it was “low polyreactivity”.

As for “QVQLVESGGGLVQAGGSLRLSCAASGSTLLYYAMGWSRQAPGKERELVAAITSGARTYYADSVKGRFTISRDNAKNTVYLQMNSLKPEDTAVYYCNAYRTSWWRAYDYWGQGTQVTVSS”, the “polyreactivity (PSR sort gate)” value was “high polyreactivity”.

Turning to “QVQLVESGGGLVQAGGSLRLSCAASGSTLNDYTMGWYRQAPGKERELVAAIRVSGARTFYADSVKGRFTISRDNAKNTVYLQMNSLKPEDTAVYYCAARWYIANPLSPSDYWGQGTQVTVSS”, the “polyreactivity (PSR sort gate)” value is reported as “low polyreactivity”. With “QVQLVESGGGLVQAGGSLRLSCAASGSTLNIYAMGWYRQAPGKERELVAAISWTDDTTYYADSVKGRFTISRDNAKNTVYLQMNSLKPEDTAVYYCAAEIYSWSDAQQYDYWGQGTQVTVSS”, the “polyreactivity (PSR sort gate)” value is given as “high polyreactivity”. The value for “QVQLVESGGGLVQAGGSLRLSCAASGSTLNLYAMGWYRQAPGKEREVVAGITGGGSSTYYADSVKGRFTISRDNAKNTVYLQMNSLKPEDTAVYYCNVEPGYYYYRHWVAYSHGYGYWGQGTQVTVSS” was “low polyreactivity”; that for “QVQLVESGGGLVQAGGSLRLSCAASGSTLNSYAMGLYRQAPGKDRELVAAISWSGGSTYYADSVKGRFSISRDNAKNTVYLQMNSVKAEDTAVYYCNAAFWWDYAYGVDYWGQGTQVTVSS” was “low polyreactivity”. The value for “QVQLVESGGGLVQAGGSLRLSCAASGSTLNSYVMGWYRQAPGKERELVATIRSGSSTNYADSVKGRFTISRDNAKNTVYLQMNSLKPEDTAVYYCAADAYSLCYDSWGQGTQVTVSS” was “low polyreactivity”; that for “QVQLVESGGGLVQAGGSLRLSCAASGSTLPAYTMAWYRQAPGKERELVAAISYRGGSTYYADSVKGRFTISRDNAKNTVYLQMNSLKPEDTAVYYCAAVYSVAYASTHYRIYDYWGQGTQVTVSS” was “high polyreactivity”.

The values are drawn from the nanobody polyreactivity screen of Harvey et al. (2022).
